# Assay results: patent US20250277031A1 (BEIJING HANMI PHARMACEUTICAL, published 2025)
# T1: mouse CD47 on mouse red blood cells (mouse, UniProt Q61735 19-303)
# T1 construct: whole, on cells; also called Mouse RBCs
# T1 sequence (looked up): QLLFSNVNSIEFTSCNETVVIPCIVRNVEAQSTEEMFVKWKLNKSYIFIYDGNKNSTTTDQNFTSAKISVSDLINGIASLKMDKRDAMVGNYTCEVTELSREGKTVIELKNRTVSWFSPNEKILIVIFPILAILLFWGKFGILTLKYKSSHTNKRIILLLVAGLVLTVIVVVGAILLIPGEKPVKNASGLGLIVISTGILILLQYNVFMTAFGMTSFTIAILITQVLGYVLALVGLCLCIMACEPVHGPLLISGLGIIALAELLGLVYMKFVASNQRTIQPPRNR
# B1: chimeric anti-human CD47 monoclonal antibody mAb-18-5 (antibody, human IgG1, kappa)
# heavy: not shown
# light: DIVMTQSQKFMSTSVGDRVSITCKASQNVRTSIAWYQQKSGQSPKTLIYLASNRHTGVPDRFTGSGSGTDFTLTISNVQSEDLADYFCLQHWNYPFTFGSGTKLEIKRTVAAPSVFIFPPSDEQLKSGTASVVCLLNNFYPREAKVQWKVDNALQSGNSQESVTEQDSKDSTYSLSSTLTLSKADYEKHKVYACEVTHQGLSSPVTKSFNRGEC
# Columns and labels:
# [1] = target: T2, recombinant human CD47 (human, UniProt Q08722 19-139); assay: SPR, Biacore X100, antibody captured on Protein A chip, CD47 as analyte
# T2 construct: also called antigen CD47
# T2 sequence (Q08722 19-139 limits assumed): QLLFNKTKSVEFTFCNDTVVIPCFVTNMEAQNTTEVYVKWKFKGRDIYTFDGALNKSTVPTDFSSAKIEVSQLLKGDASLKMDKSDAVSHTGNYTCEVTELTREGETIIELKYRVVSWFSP
# From the text: Biacore X100 instrument (purchased from GE) was used to detect the kinetic constant of the chimeric anti-human CD47 monoclonal antibodies binding to its antigen human CD47. This instrument utilizes optical surface plasmon resonance technology to detect the association and dissociation between the molecules coated on the biochip and the molecules to be tested. The main reagent used is Protein A chip (GE Healthcare, 29-1275-57). The experimental procedure is briefly described as follows: the chimeric anti-human CD47 antibodies were diluted in running buffer (1×HBS-EP+10 mM HEPES, 150 mM NaCl, 3 mM EDTA, 0.05% surfactant P20, pH7.4). During the capture-binding phase, the antibodies at a concentration of 2 μg/mL were injected for 60 seconds at a speed of 10 μL/min. During the binding phase, the antigen CD47 was diluted into multiple concentrations with running buffer, injected for 120 seconds at a speed of 30 μL/min respectively. During the dissociation phase, running buffer was injected for 600 seconds at a speed of 10 μL/min. The regeneration condition is 10 mM glycinate solution, pH1.5. Association kinetic constants and dissociation kinetic constants were analyzed and calculated by Biacore X100 evaluation software. The association kinetic constants, dissociation kinetic constants and dissociation equilibrium constants of the chimeric anti-human CD47 antibodies were shown in Table 7.
# [2] = target: T1, mouse CD47 on mouse red blood cells; assay: flow cytometry on mouse RBCs
# Experimental: The species specificity of the chimeric anti-human CD47 monoclonal antibodies was determined by flow cytometer FACS. Normal human RBCs internally donated, cynomolgus RBCs, rat RBCs and mouse RBCs were collected, washed once with cold PBS (GIBCO, Catalog number 14190) containing 2% FBS (Hyclone, Catalog number SH30084.03). The RBCs (2×10⁶ cells per tube) were resuspended in 100 μL of cold PBS containing 2% FBS, and the serially diluted anti-human CD47 antibody samples and the control CC-90002 and the isotype control were added therein. Flow tubes were incubated on ice for 30 minutes. The cells were washed twice with PBS containing 2% FBS. Then the pellets were resuspended in 200 μL of cold PBS containing 2% FBS and FITC-labeled anti-human IgG antibody diluted 1:1000 (Beijing Zhongshan Golden Bridge, Catalog number ZF0306), incubated on ice for 30 minutes in the dark. The cells were washed twice with PBS containing 2% FBS, then resuspended in 500 μL of cold PBS. The cell suspension obtained was detected and analyzed on a flow cytometer (BD, FACS Calibur), and the fluorescence intensities of the RBCs were read.
# [3] = target: T2, recombinant human CD47; assay: ELISA, plate coated with 1 µg/mL recombinant human CD47, OD450
# Experimental: A 96-well high-adsorption ELISA plate was coated with 1 μg/mL of the recombinant human CD47 (Sino Biological Inc.) at 100 μL per well using carbonate buffer solution, pH=9.6 at 4° C. overnight. The plate was washed 5 times with PBST, and then blocked using PBST with 1% BSA, 300 μL/well, and incubated at 25° C. for 1 hour, and then washed 5 times with PBST. The anti-human CD47 antibody samples and the control CC-90002 (a patent sequence from WO2016109415) were added, 100 μL/well, incubated at 25° C. for 1 hour, and then washed 5 times with PBST. The horseradish peroxidase-labeled anti-mouse IgG antibody (Abcam, catalog number Ab7068) diluted 1:10000 in PBST with 1% BSA was then added, 100 μL per well, and incubated at 25° C. for 1 hour. The plate was washed 5 times with PBST. The colorimetric substrate TMB was added, 100 μL/well, and developed at room temperature for 10 minutes. 1M H₂SO₄ was added, 100 μL/well, to stop the development. The absorbance at 450 nm was read on a microplate reader.
# [4] = target: T3, B7-H1 (human, UniProt Q9NZQ7); assay: ELISA, plate coated with 1 µg/mL recombinant human protein, anti-human IgG-HRP, OD450; antibody concentration not given
# T3 construct: recombinant protein; also called PD-L1
# T3 sequence (Q9NZQ7 19-238 limits assumed): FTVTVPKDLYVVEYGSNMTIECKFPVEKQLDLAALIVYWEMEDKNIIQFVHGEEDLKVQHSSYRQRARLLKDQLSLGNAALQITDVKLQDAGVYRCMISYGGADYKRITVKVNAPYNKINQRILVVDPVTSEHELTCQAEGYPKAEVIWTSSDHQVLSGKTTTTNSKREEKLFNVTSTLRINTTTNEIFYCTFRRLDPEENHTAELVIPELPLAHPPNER
# [5] = target: T4, recombinant human CD47-Fc protein (ACROBiosystems, catalog number CD7-H52A5) (human, UniProt Q08722 19-139); assay: blocking ELISA: plate coated with human CD47-Fc, 2 nM biotin-labelled SIRPα as the blocked ligand, falling OD450 curve; the sheet labels the half-maximal value EC50
# T4 construct: bought; not shown: Fc part of a bought fusion protein, not described
# T4 sequence (Q08722 19-139 limits assumed): as the sequence (Q08722 19-139 limits assumed) above
# Experimental: A 96-well high-adsorption ELISA plate was coated with 1 μg/mL of the recombinant human CD47-Fc (ACROBiosystems) at 100 μL per well using carbonate buffer solution, pH=9.6 at 4° C. overnight. The plate was washed 5 times with PBST, and then blocked using PBST with 1% BSA, 300 μL/well, and incubated at 25° C. for 1 hour, and then washed 5 times with PBST. The anti-human CD47 antibody samples were added, 50 μL/well, the biotin-labelled SIRPα (ACROBiosystems) was added at a concentration of 4 nM (a final concentration of 2 nM), 50 μL/well, incubated at 25° C. for 90 minutes, and then washed 5 times with PBST. The Streptavidin-HRP (BD Pharmingen, catalog number 554066) diluted 1:1000 in PBST with 1% BSA was then added, 100 μL per well, and incubated at 25° C. for 1 hour. The plate was washed 5 times with PBST. The colorimetric substrate TMB was added, 100 μL/well, and developed at room temperature for 10 minutes. 1M H₂SO₄ was added, 100 μL/well, to stop the development. The absorbance at 450 nm was read on a microplate reader.
binder,measurement,setting,value
B1,Kd,[1],0.693 nM
same,koff,[1],0.000823 s⁻¹
same,kon,[1],1.19e+06 M⁻¹ s⁻¹
same,binding result,[2],no binding
same,EC50,[3],0.026 nM
same,binding result,[4],no binding
same,IC50,[5],1.86 nM
